Consider one substance from US20050282752A1.

The target in test [1] is biotinylated human IL-1RI (human) (UniProt P14778). Description: IGEN (ECL) competition, inhibition of IL-1 signaling complex formation; concentrated stock. The following applies: ligand.
For test [2] the target is unchanged. Description: IGEN (ECL) competition, inhibition of IL-1 signaling complex formation. The following applies: ligand.

biotinylated human IL-1RI (human), sequence (P14778 18-336): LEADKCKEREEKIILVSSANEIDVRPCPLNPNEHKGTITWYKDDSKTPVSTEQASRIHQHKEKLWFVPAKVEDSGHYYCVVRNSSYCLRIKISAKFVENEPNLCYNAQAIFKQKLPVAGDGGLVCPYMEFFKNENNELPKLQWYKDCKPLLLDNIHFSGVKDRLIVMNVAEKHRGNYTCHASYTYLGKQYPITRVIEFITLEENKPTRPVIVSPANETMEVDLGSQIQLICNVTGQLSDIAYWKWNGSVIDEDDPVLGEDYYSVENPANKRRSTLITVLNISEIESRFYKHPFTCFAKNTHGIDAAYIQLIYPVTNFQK

The EC50 is the concentration needed to bring the measured effect to its halfway point. Higher therefore signals lower potency in that assay. “IL-1ra K93A mutant protein (from UniProt P18510 26-177)”: the EC50 in test [1] is 0.873 nM; in test [2], 0.562 nM.
